For this experiment, the target named is T1, IL-17RB-3-Fc fusion protein (human).
T1 construct: Used as 5x concentrated conditioned medium; also called huIL-17RB-3 like-Fc; HIL17RB-3-Fc
In words: restates the competition assay of Example 8. How it is done: The conditioned media from 293E cells transfected to express IL-17E-Fc fusion protein (SEQ ID NO: 23), prepared as described in Example 7 above, was collected, concentrated and used for the binding assay. Specificity of ligand binding was determined by competition with soluble blocking receptors, either IL-17RB-2-Fc or IL-17RB-3-Fc fusion proteins (SEQ ID NOS: 22 or 23, respectively). IL-17R-Fc fusion protein (consisting of the extracellular domain of SEQ ID NO: 3) was purified from conditioned media collected from transfected 293E cells and used as a control. Conditioned media from 293E cells transfected with IL-17RB-2-Fc or IL-17-RB-3-Fc (deposited with the ATCC on Mar. 14, 2001 under Accession Nos. and respectively), as described in Example 6 above, was concentrated (5×) with an Amicon 3Kd cut-off Centracon (#4203) and used for blocking.
Prior to the binding assay, 0.5 ml of IL-17E-Fc fusion protein containing (1×) conditioned media was added into vials each containing 0.5 ml 5× conditioned media of IL-17RB-2-Fc, IL-17RB-3-Fc, or 0.5 ml of 5 μg/ml IL-17R-Fc protein in RPMI 1640. Each vial was incubated on ice for 2 hours.
Subsequently, GM3104A cells (1×10⁶ cells per sample) were incubated with 1 ml of 8% FBS/PBS, at 4° C. for 1 hour. […]

B1: recombinant human IL-17E-Fc fusion protein (Fc fusion)
chain: YSHWPSCCPSKGQDTSEELLRWSTVPVPPLEPARPNRHPESCRASEDGPLNSRAISPWRYELDRDLNRLPQDLYHARCLCPHCVSLQTGSHMDPRGNSELLYHNQTVFYRRPCHGEKGTHKGYCLERRLYRVSLACVCVRPRVMGEPKSADKTHTCPPCPAPELLGGPSVFLFPPKPKDTLMISRTPEVTCVVVDVSHEDPEVKFNWYVDGVEVHNAKTKPREEQYNSTYRVVSVLTVLHQDWLNGKEYKCKVSNKALPAPIEKTISKAKGQPREPQVYTLPPSRDELTKNQVSLTCLVKGFYPSDDIAVEWESNGQPENNYKTTPPVLDSDGSFFLYSKLTVDKSRWQQGNVFSCSVMHEALHNHYTQKSLSLSPGK
notes: Used as conditioned medium of transfected 293E cells; also called IL-17 like-Fc; rhIL-17 like-Fc
For the molecule B1, the binding result is on record as “binds”.

These data come from patent US20050234221A1 (Amgen, published 2005).
